Assay results as given in US20240425848.

Target: histone H3 trimethylated at lysine 9 (H3K9me3) in native chromatin of Caki-1 cells, P68431

B1: Tn5 (protein)
chain: MITSALHRAADWAKSVFSSAALGDPRRTARLVNVAAQLAKYSGKSITISSEGSKAMQEGAYRFIRNPNVSAEAIRKAGAMQTVKLAQEFPELLAIEDTTSLSYRHQVAEELGKLGSIQDKSRGWWVHSVLLLEATTFRTVGLLHQEWWMRPDDPADADEKESGKWLAAAATSRLRMGSMMSNVIAVCDREADIHAYLQDKLAHNERFVVRSKHPRKDVESGLYLYDHLKNQPELGGYQISIPQKGVVDKRGKRKNRPARKASLSLRSGRITLKQGNITLNAVLAEEINPPKGETPLKWLLLTSEPVESLAQALRVIDIYTHRWRIEEFHKAWKTGAGAERQRMEEPDNLERMVSILSFVAVRLLQLRESFTPPQALRAQGLLKEAEHVESQSAETVLTPDECQLLGYLDKGKRKRKEKAGSLQWAYMAIARLGGFMDSKRTGIASWGALWEGWEALQSKLDGFLAAKDLMAQGIKI
- Ec: global enrichment of the ATAC-seq tagmentation signal over H3K9me3-marked regions, log2(ratio) over genomic Input, Caki-1; subscript printed as 0, first E line of the box: E0= -5.07
- Ec: global enrichment of the ATAC-seq tagmentation signal over H3K9me3-marked regions, log2(ratio) over genomic Input, Caki-1 [Continued) e]: Ec= -5.07
- Mc: modal enrichment of the ATAC-seq tagmentation signal over H3K9me3-marked regions, log2(ratio) over genomic Input, Caki-1; subscript printed as 0, first M line of the box, agrees with the mode of t: M0= -2.19
- Mc: modal enrichment of the ATAC-seq tagmentation signal over H3K9me3-marked regions, log2(ratio) over genomic Input, Caki-1 [Continued) e]: Mc= -2.19
- stated: no tagmentation signal over H3K9me3 ChIP-seq domains (ATAC-seq on permeabilized Caki-1 nuclei): Tn5 track (scale 0-140.7): near zero over the H3K9me3 domains at about 42.4-43.4 and 43.8-44.6 Mbp of Chr. 19; peaks only where the H3K4me3 track has peaks
- stated: no tagmentation signal over H3K9me3 ChIP-seq domains (ATAC-seq, Caki-1): Tn5 track (scale 0-50): clusters of sharp peaks at the positions of the H3K4me3 peaks; near zero at about 59-62 Mbp of Chr.12, where the H3K9me3 and TnH tracks are raised
- stated: no tagmentation signal over H3K9me3 ChIP-seq domains (bulk ATAC-seq with Tn5 alone and scGET-seq pseudo-bulk, Caki-1) [Continued) g]: tn5 and tn5 pseudobulk tracks (scale 0-50 each): flat near 0 at about 33.5-34.7 Mbp and near 0 inside the H3K9me3 domains at about 36.6-37.4 and 38.2-38.9 Mbp of chr1; sharp peaks at the positions of the H3K4me3 peaks
